Results taken from article PMC11670113 (Proceedings of the National Academy of Sciences of the …, 2024).

B1: AP-3 δ subunit (residues 1-617), as in the AP-3 core (domain or fragment, human, UniProt O14617 1-617, looked up)
chain: MALKMVKGSIDRMFDKNLQDLVRGIRNHKEDEAKYISQCIDEIKQELKQDNIAVKANAVCKLTYLQMLGYDISWAAFNIIEVMSASKFTFKRIGYLAASQSFHEGTDVIMLTTNQIRKDLSSPSQYDTGVALTGLSCFVTPDLARDLANDIMTLMSHTKPYIRKKAVLIMYKVFLKYPESLRPAFPRLKEKLEDPDPGVQSAAVNVICELARRNPKNYLSLAPLFFKLMTSSTNNWVLIKIIKLFGALTPLEPRLGKKLIEPLTNLIHSTSAMSLLYECVNTVIAVLISLSSGMPNHSASIQLCVQKLRILIEDSDQNLKYLGLLAMSKILKTHPKSVQSHKDLILQCLDDKDESIRLRALDLLYGMVSKKNLMEIVKKLMTHVDKAEGTTYRDELLTKIIDICSQSNYQYITNFEWYISILVELTRLEGTRHGHLIAAQMLDVAIRVKAIRKFAVSQMSALLDSAHLLASSTQRNGICEVLYAAAWICGEFSEHLQEPHHTLEAMLRPRVTTLPGHIQAVYVQNVVKLYASILQQKEQAGEAEGAQAVTQLMVDRLPQFVQSADLEVQERASCILQLVKHIQKLQAKDVPVAEEVSALFAGELNPVAPKAQKKVPV

Legend:
cryo-EM structure = target: the molecule itself; experiment: cryo-EM structure
[1] = target: B1; experiment: cryo-EM structure

binding result [1]	Binder	binding result (cryo-EM structure)
	B1	binds
binds	full-length, myristoylated Arf1-Q71L (enzyme, myristoylated) not shown	
